Results from paper PMC9897471.
Where two headings read alike, the source gives them in different places.

Experiments:
GST-BRCA1 BRCT WT [1] = target: T1, GST-BRCA1 BRCT WT (UniProt P38398 1582-1863); assay: EMSA
GST-BRCA1 BRCT WT [2] = target: T1, GST-BRCA1 BRCT WT; assay: EMSA; remark: listed apart in the source

T1 sequence (P38398 1582-1863): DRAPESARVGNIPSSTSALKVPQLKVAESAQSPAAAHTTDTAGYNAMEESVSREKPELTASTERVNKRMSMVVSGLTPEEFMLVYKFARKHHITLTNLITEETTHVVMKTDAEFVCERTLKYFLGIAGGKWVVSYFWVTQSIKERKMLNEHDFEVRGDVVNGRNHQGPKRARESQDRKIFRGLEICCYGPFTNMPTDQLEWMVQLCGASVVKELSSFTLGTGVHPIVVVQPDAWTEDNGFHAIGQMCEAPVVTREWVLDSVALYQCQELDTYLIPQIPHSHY

B1: non-rRNA bottom ssRNA (ssRNA)
RNA: AUCCCAGCACCAGAUUCAGCAAUUAAGCUCUAAGCCAUGAAUUCAAAUGACCUCUUAUCA
B1: binds (GST-BRCA1 BRCT WT [1]).

B2: non-rRNA dsRNA (bottom/top) (dsRNA)
RNA 1: B1 RNA
RNA 2: UGAUAAGAGGUCAUUUGAAUUCAUGGCUUAGAGCUUAAUUGCUGAAUCUGGUGCUGGGAU
B2: no binding (GST-BRCA1 BRCT WT [1]).

B3: non-rDNA bottom ssDNA (ssDNA)
DNA: ATCCCAGCACCAGATTCAGCAATTAAGCTCTAAGCCATGAATTCAAATGACCTCTTATCA
B3: binds (GST-BRCA1 BRCT WT [2]).
